From publication PMC4131202 (2013)

Biological target: actin filaments (UniProt P68133)
Assay: pelleting assay

B1: End4p TLD (protein)
chain: LLNAPGENIEELVDNQLAETAQAIQQAILRLQNIAAKPKDDSLSPSELQVHDSLLSASIAITEAIARLIKAATASQAEIVAQGRGSSSRGAFYKKHNRWTEGLISAAKAVARATTTLIETADGVVNGTSSFEHLIVACNGVSAATAQLVAASRVKANFASKVQDHLEDAAKAVTEACKALVRQVESVALKAKEVQHEDFSSLGVHEYRRKEIEQQVQILKLENDLVAARRRLFDMRKTSYHVA
B1 was tested, and the Kd was about 3000 nM.
